# Reference: patent US20150315556
# Numbering of substitutions follows the chain as printed.
# T1: ANT2 rationally-designed meganuclease (I-CreI derivative)
# T1 chain: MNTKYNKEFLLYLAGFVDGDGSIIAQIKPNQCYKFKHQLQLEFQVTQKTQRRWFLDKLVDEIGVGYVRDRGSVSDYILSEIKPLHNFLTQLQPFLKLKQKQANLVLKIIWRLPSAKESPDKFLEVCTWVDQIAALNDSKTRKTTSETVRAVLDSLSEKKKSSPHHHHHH
# T2: URA2 rationally-designed meganuclease (I-CreI derivative)
# T2 chain: T1 chain with I24K, K28R, N30E, C32N, Y33C, Q38R, Q40E, E42R, R68Y
# T3: HSV2 rationally-designed meganuclease (I-CreI derivative)
# T3 chain: T1 chain with K28R, N30R, Y33R, Q38E, Q40E, E42R
# T4: LAM2 rationally-designed meganuclease (I-CreI derivative)
# T4 chain: T1 chain with N30E, C32S, Q38R, Q40R
# T5: LAM2 variant in which glutamic acids at positions 8 and 61 were changed to lysine
# T5 chain: T1 chain with E8K, N30E, C32S, Q38R, Q40R, E61K
# T6: HGH2 rationally-designed meganuclease (I-CreI derivative; partner of HGH1, half-site SEQ ID NO: 56)
# T6 chain: T1 chain with Q26A, K28D, C32K, Y33R, Q40R, E42R
# T7: HGH2 rationally-designed meganuclease (I-CreI derivative; partner of CYP, half-site SEQ ID NO: 76)
# T7 chain: T1 chain with I24K, Q26S, C32S, Y33C, E42A, Y66K, R68Y, I77R
# T8: CCR2 rationally-designed meganuclease (I-CreI derivative)
# T8 chain: T1 chain with I24K, N30E, C32N, Y33R, Q38R, Q40E, E42A, R68Y
# T9: MGC2 rationally-designed meganuclease (I-CreI derivative)
# T9 chain: T1 chain with Q26A, N30R, C32S, Y33R, Q38E, E42A, Q44T, I77Q
# T10: PDX2 rationally-designed meganuclease (I-CreI derivative)
# T10 chain: T1 chain with K28C, N30R, Y33R, Q38E, Q40R, E42Q
# T11: ACH2 rationally-designed meganuclease (I-CreI derivative)
# T11 chain: T1 chain with N30E, C32D, Q38R, Q40R
# T12: MYD2 rationally-designed meganuclease (I-CreI derivative)
# T12 chain: T1 chain with Q26A, K28R, N30E, C32S, Q38R, Q40E, E42R, I77Q
# T13: CF2 rationally-designed meganuclease (I-CreI derivative)
# T13 chain: T1 chain with I24C, Q26A, N30E, C32N, Y33R, Q38R, E42A, Q44T, R68Y
# T14: GLA2 rationally-designed meganuclease (I-CreI derivative)
# T14 chain: T1 chain with I24K, Q26A, K28R, N30R, C32S, Q38E, Q40E, E42R, R68Y, I77Q
# T15: BRP2 rationally-designed meganuclease (I-CreI derivative)
# T15 chain: T1 chain with Q26S, K28R, N30R, C32S, Y33C, Q38E, Q40E, E42R, I77R
# B1: ANT1 rationally-designed meganuclease (I-CreI derivative) (protein)
# chain: T1 chain with K28A, C32N, Y33C, E42R
# B2: URA1 rationally-designed meganuclease (I-CreI derivative) (protein)
# chain: T1 chain with C32S, Y33C, Q40R, E42A, Q44T
# B3: HSV1 rationally-designed meganuclease (I-CreI derivative) (protein)
# chain: T1 chain with N30R, C32S, Y33C, Q38E, Q40R, E42Q
# B4: LAM1 rationally-designed meganuclease (I-CreI derivative) (protein)
# chain: T1 chain with K28D, N30R, Y33R, Q38E, Q40R, E42R
# B5: LAM1 variant in which lysines at positions 7, 57 and 96 were changed to glutamic acids (protein)
# chain: T1 chain with K7E, K28D, N30R, Y33R, Q38E, Q40R, E42R, K57E, K96E
# B6: HGH1 rationally-designed meganuclease (I-CreI derivative) (protein)
# chain: T1 chain with K28D, C32D, Y33C, Q40R, E42R
# B7: CYP rationally-designed meganuclease (I-CreI derivative) (protein)
# chain: T1 chain with Q26A, C32D, Q40R, E42A, R68Y, I77Q
# B8: CCR1 rationally-designed meganuclease (I-CreI derivative) (protein)
# chain: T1 chain with I24K, K28R, N30R, C32N, Q38E, Q40E, R68Y
# B9: MGC1 rationally-designed meganuclease (I-CreI derivative) (protein)
# chain: T1 chain with I24K, E42A, R68Y
# B10: PDX1 rationally-designed meganuclease (I-CreI derivative) (protein)
# chain: T1 chain with C32N, Y33C, E42A
# B11: ACH1 rationally-designed meganuclease (I-CreI derivative) (protein)
# chain: T1 chain with Q26A, K28D, N30E, C32D, Y33C, Q38R, Q40R, E42R, I77Q
# B12: MYD1 rationally-designed meganuclease (I-CreI derivative) (protein)
# chain: T1 chain with K28R, N30R, C32S, Q38E, Q40E, E42A, Y66K, I77E
# B13: CF1 rationally-designed meganuclease (I-CreI derivative) (protein)
# chain: T1 chain with I24C, C32S, E42A, R68H
# B14: GLA1 rationally-designed meganuclease (I-CreI derivative) (protein)
# chain: T1 chain with I24K, Q26A, N30R, C32S, Q38E, Q40S, E42A, R68Y, I77Q, S79C
# B15: BRP1 rationally-designed meganuclease (I-CreI derivative) (protein)
# chain: T1 chain with I24K, K28R, N30R, Y33R, Q38E, Q40E, E42A, Y66K, R68Y, I77E
# How the values were obtained:
# [1] = molecular target: T1, ANT2 rationally-designed meganuclease …
# [2] = molecular target: T2, URA2 rationally-designed meganuclease …
# [3] = molecular target: T3, HSV2 rationally-designed meganuclease …
# [4] = molecular target: T4, LAM2 rationally-designed meganuclease …
# [5] = molecular target: T5, LAM2 variant in which glutamic acids at …
# [6] = molecular target: T6, HGH2 rationally-designed meganuclease …
# [7] = molecular target: T7, HGH2 rationally-designed meganuclease …
# [8] = molecular target: T8, CCR2 rationally-designed meganuclease …
# [9] = molecular target: T9, MGC2 rationally-designed meganuclease …
# [10] = molecular target: T10, PDX2 rationally-designed meganuclease …
# [11] = molecular target: T11, ACH2 rationally-designed meganuclease …
# [12] = molecular target: T12, MYD2 rationally-designed meganuclease …
# [13] = molecular target: T13, CF2 rationally-designed meganuclease …
# [14] = molecular target: T14, GLA2 rationally-designed meganuclease …
# [15] = molecular target: T15, BRP2 rationally-designed meganuclease …
protein,measurement,setting,value
B1,cleavage of a linearized DNA substrate containing the intended non-palindromic recognition sequence by the 1:1 mixture,[1],each rationally-designed meganuclease heterodimer cleaves its intended DNA site
B2,cleavage of a linearized DNA substrate containing the intended non-palindromic recognition sequence by the 1:1 mixture,[2],each rationally-designed meganuclease heterodimer cleaves its intended DNA site
B3,cleavage of a linearized DNA substrate containing the intended non-palindromic recognition sequence by the 1:1 mixture,[3],each rationally-designed meganuclease heterodimer cleaves its intended DNA site
B4,cleavage of the non-palindromic LAM1/LAM2 hybrid DNA site by a 1:1 mixture incubated at 42 C for 20 minutes,[4],"The 1:1 mixture of LAM1 and LAM2, however, cleaves all three DNA sites"
same,cleavage of the non-palindromic LAM1/LAM2 hybrid DNA site by the co-expressed enzyme mixture,[4],"The co-expressed enzyme mixture was found to cleave all three sites, including the LAM1/LAM2 hybrid site"
B5,cleavage of the LAM1/LAM2 hybrid site against the two palindromic sites by the co-expressed interface variants,[5],the LAM1/LAM2 hybrid site was found to be cleaved preferentially over the two palindromic sites
B6,cleavage of a linearized DNA substrate containing the intended non-palindromic recognition sequence by the 1:1 mixture,[6],each rationally-designed meganuclease heterodimer cleaves its intended DNA site
B7,cleavage of a linearized DNA substrate containing the intended non-palindromic recognition sequence by the 1:1 mixture,[7],each rationally-designed meganuclease heterodimer cleaves its intended DNA site
B8,cleavage of a linearized DNA substrate containing the intended non-palindromic recognition sequence by the 1:1 mixture,[8],each rationally-designed meganuclease heterodimer cleaves its intended DNA site
B9,cleavage of a linearized DNA substrate containing the intended non-palindromic recognition sequence by the 1:1 mixture,[9],each rationally-designed meganuclease heterodimer cleaves its intended DNA site
B10,cleavage of a linearized DNA substrate containing the intended non-palindromic recognition sequence by the 1:1 mixture,[10],each rationally-designed meganuclease heterodimer cleaves its intended DNA site
B11,cleavage of a linearized DNA substrate containing the intended non-palindromic recognition sequence by the 1:1 mixture,[11],each rationally-designed meganuclease heterodimer cleaves its intended DNA site
B12,cleavage of a linearized DNA substrate containing the intended non-palindromic recognition sequence by the 1:1 mixture,[12],each rationally-designed meganuclease heterodimer cleaves its intended DNA site
B13,cleavage of a linearized DNA substrate containing the intended non-palindromic recognition sequence by the 1:1 mixture,[13],each rationally-designed meganuclease heterodimer cleaves its intended DNA site
B14,cleavage of a linearized DNA substrate containing the intended non-palindromic recognition sequence by the 1:1 mixture,[14],each rationally-designed meganuclease heterodimer cleaves its intended DNA site
B15,cleavage of a linearized DNA substrate containing the intended non-palindromic recognition sequence by the 1:1 mixture,[15],each rationally-designed meganuclease heterodimer cleaves its intended DNA site
